Data reported in patent US20220333113.

Target: T1, RIG-I CTD (aa 792-925) (Homo sapiens) (UniProt O95786)
T1 sequence: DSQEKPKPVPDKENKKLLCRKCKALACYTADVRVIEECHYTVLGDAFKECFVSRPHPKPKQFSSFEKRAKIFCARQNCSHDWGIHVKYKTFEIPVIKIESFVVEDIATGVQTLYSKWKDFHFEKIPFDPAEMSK
Experiment: EMSA
Conditions: J = 5-(N-3-phenylpropylcarboxyamide)-2'-deoxyuridine (PPdU) at every J (n in listing); SB18T0.01 (5 mM MgCl2) + 20% glycerol, 1 mM DTT, 37 C

| Sequence | Kd |
| --- | --- |
| ATCTCTGTGTCATGTGTTTTAATGTCAGTTTAATGATGAGGGACGGGCAG [14832-55_3] | 0.0072 nM |

Same assay, conditions: J = PPdU at every J; SB18T0.01 + 20% glycerol, 1 mM DTT, 37 C

| Sequence | Kd |
| --- | --- |
| ATCTCTGTGTCATGTGTTTTAATGTCAGTTTAATGATG [14832-55_9] | 0.15 nM |
| ATCTCTGTGTCATGTGTTTTAATGTCAGTTTAATG [14832-55_10] | 1.5 nM |
| TCTGTGTCATGTGTTTTAATGTCAGTTTAATGATGAG [14832-55_14] | 0.066 nM |
| TCTGTGTCATGTGTTTTAATGTCAGTTTAATGATGA [14832-55_15] | 0.063 nM |
| CTGTGTCATGTGTTTTAATGTCAGTTTAATGATGAGG [14832-55_12] | 0.34 nM |
| TCTGTGTCATGTGTTTTAATGTCAGTTTAATGATGAGG [14832-55_11] | 0.068 nM |
| TCTGTGTCATGTGTTTTAATGTCAGTTTAATGATGAGGGACGGGCAG [14832-55_4] | 0.084 nM |
| TGTGTCATGTGTTTTAATGTCAGTTTAATGATGAGG [14832-55_13] | 4.3 nM |
| ATCTCTGTGTCATGTGTTTTAATGTCAGTTTAATGATGAGGGAC [14832-55_7] | 0.011 nM |
| ATCTCTGTGTCATGTGTTTTAATGTCAGTTTAATGATGAGGGACGGG [14832-55_6] | 0.018 nM |
| GTGTCATGTGTTTTAATGTCAGTTTAATGATGAGGGACGGGCAG [14832-55_5] | 36 nM |

Target: T2, RIG-I WT full-length (Homo sapiens) (UniProt O95786)
T2 sequence: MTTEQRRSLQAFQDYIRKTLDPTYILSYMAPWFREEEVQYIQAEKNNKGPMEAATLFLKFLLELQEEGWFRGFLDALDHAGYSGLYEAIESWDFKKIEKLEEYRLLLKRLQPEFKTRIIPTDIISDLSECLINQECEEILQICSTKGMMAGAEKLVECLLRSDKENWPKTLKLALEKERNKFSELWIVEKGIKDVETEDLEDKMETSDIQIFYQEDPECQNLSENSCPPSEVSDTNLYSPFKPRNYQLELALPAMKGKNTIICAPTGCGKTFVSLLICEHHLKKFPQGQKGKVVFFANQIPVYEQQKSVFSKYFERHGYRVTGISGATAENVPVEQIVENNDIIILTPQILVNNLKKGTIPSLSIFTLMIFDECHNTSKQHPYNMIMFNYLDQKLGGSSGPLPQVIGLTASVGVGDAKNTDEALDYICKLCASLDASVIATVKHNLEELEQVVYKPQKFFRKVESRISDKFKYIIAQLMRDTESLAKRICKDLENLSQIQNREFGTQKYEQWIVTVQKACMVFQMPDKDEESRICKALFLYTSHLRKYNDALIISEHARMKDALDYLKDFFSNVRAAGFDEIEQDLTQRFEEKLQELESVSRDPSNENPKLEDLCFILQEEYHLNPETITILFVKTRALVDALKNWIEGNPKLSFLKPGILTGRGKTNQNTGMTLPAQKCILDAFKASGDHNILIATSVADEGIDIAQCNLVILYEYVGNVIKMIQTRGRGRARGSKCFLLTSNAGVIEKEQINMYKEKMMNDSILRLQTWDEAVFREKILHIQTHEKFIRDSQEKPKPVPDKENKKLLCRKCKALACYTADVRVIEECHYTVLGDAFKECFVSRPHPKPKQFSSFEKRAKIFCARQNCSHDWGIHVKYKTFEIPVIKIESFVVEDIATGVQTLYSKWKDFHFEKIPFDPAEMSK
Experiment: filter
Conditions: J = 5-(N-3-phenylpropylcarboxyamide)-2'-deoxyuridine (PPdU) at every J (n in listing); SB18T0.01 (5 mM MgCl2) + 1 mM DTT, 37 C

| Sequence | Kd |
| --- | --- |
| ATCTCTGTGTCATGTGTTTTAATGTCAGTTTAATGATGAGGGACGGGCAG [14832-55_3] | 0.024 nM |

Same assay, conditions: J = PPdU at every J; SB18T0.01 + 1 mM DTT, 37 C

| Sequence | Kd |
| --- | --- |
| ATCTCCGGGAACACTGTCTGATTAATGTCTTGTAAGCGGGTTTTCGGCAG [14833-10_3] | 12 nM |
